Reference: paper PMC4701952

Target: AG^(74-173) (A. thaliana) (UniProt P17839)
Test: SAXS with on-line SEC; Superdex 75 3.2/300 PC on-line at ESRF BM29, 0.1 ml/min, room temperature, 30 mM Tris pH 8.0, 300 mM NaCl, 1 mM TCEP, 5% glycerol; mass from correlated volume and Porod volume; self-association

Chain of AG^(74-173) (P17839 74-173): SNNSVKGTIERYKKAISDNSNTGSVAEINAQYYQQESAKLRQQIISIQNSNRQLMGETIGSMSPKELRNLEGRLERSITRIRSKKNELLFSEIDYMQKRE

stoichiometry N: 2
Substance: AG^(74-173) (from UniProt P17839 74-173) (domain or fragment)
